Results as given in US12559745B2, “Methods and compositions for linking RNA stem loops” (THE REGENTS OF THE UNIVERSITY OF CALIFORNIA, priority 2020, dated 2026).
Where “and” joins values, the source holds several entries; their conditions need not be identical. Equal entries are not always repeated. Entries after “also recorded” stand apart in the source; their conditions may differ.

Key:
[1] = In vitro photo-cleavage (uncaging) assay, LED irradiation followed by denaturing PAGE; type: physicochemical
[2] = tested on: 60 bp DNA substrate containing the sgRNA-9 target sequence; assay: In vitro binding assay, Cas9-sgRNA-DNA ternary complex formation (native PAGE); conditions: pre-formed RNP plus 20 nM DNA substrate, 37° C., 90 seconds; 5% native TBE-PAGE
DYRK1A genome locus = assay: CRISPR-Cas9 gene editing in Cas9-expressing HEK-293 cells, INDEL rate by Sanger sequencing / ICE tool; type: cell-based; conditions: for gene editing activity (INDEL rate) of unmodified sgRNA: unmodified (linear) sgRNA with Tag sequence(s), transfected into Cas9-expressing HEK-293 cells, compared with wild-type sgRNA
From the text: We asked whether RNA-CLAMP could be used to control CRISPR-Cas9 editing via cyclization of the sgRNA. The sgRNA is highly structured when in complex with dCas9 and target DNA, forming three stem loops and one tetraloop, with some of the stem loops being tolerant to mutations.^[18] A sgRNA contains four stem-loops and two free ends (FIGS. 3A and 3B). We screened the 17-nt Tag recognition sequence (GCAGACUGUAAAUCUGC) (SEQ ID NO:1) at all 6 potential labeling sites within the sgRNA: insertion at the 5′-end (sgRNA-1) or 3′-end (sgRNA-6) and substituting the 17-nt Tag stem loop for either the tetra loop (sgRNA-2), stem loop 1 (sgRNA-3), stem loop 2 (sgRNA-4) or stem loop 3 (sgRNA-5) (FIG. 12). All the sgRNAs target the DYRK1A genome locus.^[32] To screen for activity, we transiently transfected the sgRNAs into HEK-293 cells stably expressing Cas9 protein. Three days after transfection, genomic DNA was harvested and the sgRNA targeted region was amplified by PCR. Sanger sequencing results were analyzed using the ICE tool to determine the INDEL rate, which is representative of the gene editing efficiency of the sgRNA.^[33]
To obtain optimal gene editing efficiency, we examined different Cas9 delivery approaches, including transfection or electroporation of Cas9 vector or mRNA, electroporation of Cas9-sgRNA RNP complex and sequential transfection of Cas9-mRNA and sgRNA. The gene editing efficiency varies from 20% INDEL to 80% INDEL with different delivery strategies. We constructed an engineered mammalian single-colony HEK-293 cell line that stably expresses Cas9 enzyme using the lentiviral approach. To quantify the activity of sgRNA, we delivered sgRNA1 to sgRNA6 into the HEK-293-Cas9 cells using lipofectamine RNAiMAX. One day after transfection, culturing medium was exchanged with fresh full-growth medium (DMEM with 10% FBS). Three days after transfection, genomic DNA was extracted from the cells, following by PCR amplification of the sgRNA targeted region. The PCR amplified DNA fragments were further analyzed by either the T7E1 nuclease digestion assay or by Sanger sequencing to quantify gene knockouts efficiency of the targeted region.^25,26 […]
Gene editing experiments were performed following previously reported protocols.^[2] For gene editing experiments using HEK-293-Cas9 cell line, 250 ng sgRNA and 0.5 μL Lipofectamine RNAiMAX were used to form the Lipo-RNA complex. The formed complex was added with 150 μL DMEM (10% FBS) containing 40K HEK-293-Cas9 cells. The transfection was performed in a 96-well plate format. 24 hours after transfection, cell medium was changed to complete DMEM medium. At day 4, genomic DNA was extracted using 80 μL QuickExtract™ DNA Extraction Solution (Lucigen, catalog number: QE09050). Following the manufacturer's protocol, the extraction solution was heated at 65° C. for 15 minutes and then at 95° C. for another 15 minutes. The resulting solution was diluted using water at a 1:10 ratio. The diluted product was directly used as a template for PCR amplification of the genomic region. For PCR amplification of the genomic region, Q5 HOTSTART HIFI DNA polymerase 2× master mix was used following the manufacturer's protocol without further optimization. The primers used for amplifying the DYRK1A and GRIN2B genome locus are listed below.
Crude PCR products were column purified using a Zymo DNA purification kit. The purified PCR amplicon was analyzed by Sanger sequencing to estimate INDEL % using the ICE tool.^[3] The wt-sgRNA gene editing INDEL % was usually around 70-80% following this protocol.

HEK-293 cells = assay: Gene editing in HEK-293 wild-type cell line with Cas9 mRNA transfected one day before sgRNA; type: cell-based; conditions: HEK-293 wild-type cells, Cas9 mRNA transfection; usual value
Experimental: For gene editing experiments performed using a HEK-293 wild-type cell line, mRNA encoding the Cas9 protein (Trilink, catalog number L-7206-20) was transfected into HEK-293 cells one day prior to sgRNA transfection. For mRNA transfection, Lipo-RNA complex was formed by using 500 ng mRNA, 0.9 μL Lipofectamine RNAiMAX in 50 μL total volume, combined with 150 μL DMEM complete medium containing 40K HEK-293 cells. At day 2, sgRNA transfection was performed following the protocol described in the previous section. The wt-sgRNA gene editing INDEL % was usually around 40-50% following this protocol.

Cas9 protein = target: T1, Cas9 protein (Streptococcus pyogenes serotype M1, UniProt Q99ZW2); assay: In vitro binding assay, Cas9-sgRNA RNP formation (gel shift, native PAGE); conditions: 200 nM Cas9, 200 nM sgRNA
T1 construct: purchased NEB M0646T

CCN(CC)c1ccc2c(C(CCCn3cc(COCCC(=O)NCCCCCCNCc4c[nH]c5nc(N)[nH]c(=O)c45)nn3)OC(=O)NCCCCCCNCc3c[nH]c4nc(N)[nH]c(=O)c34)cc(=O)oc2c1 (stereo not drawn) [preQ1-DEACM-preQ1]
wavelength of light that photo-cleaves the linker [1]: 405-456 nm

COc1cc(C(C)OC(=O)NCCCCCCNCc2c[nH]c3nc(N)[nH]c(=O)c23)c([N+](=O)[O-])cc1OCCCC(=O)NCCOCCOCCOCCOCc1cn(CC(=O)NCCCCCCNCc2c[nH]c3nc(N)[nH]c(=O)c23)nn1 (stereo not drawn) [preQ1-NB-preQ1]
wavelength of light that photo-cleaves the linker [1]: 356-390 nm and 390 nm

sgRNA-12: sgRNA targeting the sequence between the mCherry and GFP genes of the surrogate reporter, SEQ ID NO:40 (guide GTTCAGGGCTTGACCAACAC; listed as DNA, chemistry not fully specified)
formation of Cas9-sgRNA-DNA ternary complex [2]: no Cas9-sgRNA-DNA complex was observed

B1: sgRNA-7: sgRNA with two Tag sequences inserted at both the tetraloop and stem loop 2, SEQ ID NO:15 (nucleic acid)
guide: NNNNNNNNNNNNNNNNNNNNGTTTTAGAGCTAGCAGACTGTAAATCTGCTAGCAAGTTAAAATAAGGCTAGTCCGTTATCAACTTGCAGACTGTAAATCTGCAAGTGGCACCGAGTCGGTGC
modifications: listed as DNA, chemistry not given here
INDELs (DYRK1A genome locus; HEK-293 cells, clamped with preQ1-PEG10-preQ1 and gel purified, versus unmodified (linear) form): 80.7%
gene editing activity (INDEL rate) of unmodified sgRNA (DYRK1A genome locus): wild-type level gene editing activity; also recorded: did not compromise gene editing activity
integrity of unlabeled sgRNA under 456 nm irradiation ([1]; 456 nm LED, 3 minutes): harmless to the integrity

B2: sgRNA-5: sgRNA with 17-nt Tag stem loop substituted for stem loop 3, SEQ ID NO:13 (nucleic acid)
guide: NNNNNNNNNNNNNNNNNNNNGTTTTAGAGCTAGAAATAGCAAGTTAAAATAAGGCTAGTCCGTTATCAACTTGAAAAAGTGGCACCGAGCAGACTGTAAATCTGCTCGGTGC
modifications: listed as DNA, chemistry not given here
gene editing activity (INDEL rate) of unmodified sgRNA (DYRK1A genome locus): significantly reduced activity

B3: sgRNA-2: sgRNA with 17-nt Tag stem loop substituted for the tetra loop, SEQ ID NO:10 (nucleic acid)
guide: NNNNNNNNNNNNNNNNNNNNGTTTTAGAGCTAGCAGACTGTAAATCTGCTAGCAAGTTAAAATAAGGCTAGTCCGTTATCAACTTGAAAAAGTGGCACCGAGTCGGTGC
modifications: listed as DNA, chemistry not given here
gene editing activity (INDEL rate) of unmodified sgRNA (DYRK1A genome locus): wild-type level gene editing activity; also recorded: retained wild-type level activity

B4: sgRNA-4: sgRNA with 17-nt Tag stem loop substituted for stem loop 2, SEQ ID NO:12 (nucleic acid)
guide: NNNNNNNNNNNNNNNNNNNNGTTTTAGAGCTAGAAATAGCAAGTTAAAATAAGGCTAGTCCGTTATCAACTTGCAGACTGTAAATCTGCAAGTGGCACCGAGTCGGTGC
modifications: listed as DNA, chemistry not given here
gene editing activity (INDEL rate) of unmodified sgRNA (DYRK1A genome locus): wild-type level gene editing activity; also recorded: retained wild-type level activity

B5: wt-sgRNA: wild-type single-guide RNA, SEQ ID NO:8 (nucleic acid)
guide: CTAATACGACTCACTATANNNNNNNNNNNNNNNNNNNNGTTTTAGAGCTAGAAATAGCAAGTTAAAATAAGGCTAGTCCGTTATCAACTTGAAAAAGTGGCACCGAGTCGGTGCTTTTTT
modifications: target site or template, no part of the molecule; listed as DNA, chemistry not given here
gene editing INDEL % (DYRK1A genome locus; HEK-293-Cas9 cell line protocol, usual value): 70-80%
gene editing INDEL % (HEK-293 cells): 40-50%

B6: sgRNA-9: sgRNA-7 with Tag stems truncated by 4 base pairs, SEQ ID NO:17; targets DYRK1A (nucleic acid)
guide: NNNNNNNNNNNNNNNNNNNNGTTTTAGAGCTAACTGTAAATTAGCAAGTTAAAATAAGGCTAGTCCGTTATCAACTTACTGTAAATAAGTGGCACCGAGTCGGTGC
modifications: chemistry not given here
notes: targets DYRK1A
formation of Cas9-sgRNA-DNA ternary complex [2]: observed the formation of the Cas9-sgRNA-DNA ternary complex; also recorded: detected in lane 5
formation of Cas9-sgRNA RNP (Cas9 protein): observed; also recorded: detected in lane 4

B7: sgRNA-3: sgRNA with 17-nt Tag stem loop substituted for stem loop 1, SEQ ID NO:11 (nucleic acid)
guide: NNNNNNNNNNNNNNNNNNNNGTTTTAGAGCTAGAAATAGCAAGTTAAAATAAGGCGCAGACTGTAAATCTGCGTCCGTTATCAACTTGAAAAAGTGGCACCGAGTCGGTGC
modifications: listed as DNA, chemistry not given here
gene editing activity (INDEL rate) of unmodified sgRNA (DYRK1A genome locus): significantly reduced activity

B8: sgRNA-1: sgRNA with 17-nt Tag inserted at the 5′-end, SEQ ID NO:9 (nucleic acid)
guide: GCAGACTGTAAATCTGCTTTTNNNNNNNNNNNNNNNNNNNNGTTTTAGAGCTAGAAATAGCAAGTTAAAATAAGGCTAGTCCGTTATCAACTTGAAAAAGTGGCACCGAGTCGGTGC
modifications: listed as DNA, chemistry not given here
gene editing activity (INDEL rate) of unmodified sgRNA (DYRK1A genome locus): significantly reduced activity
